Results published in patent US20120108797A1 (AstraZeneca / MedImmune, published 2012).

Tests used:
[1] = target: T1, cynomolgus monkey uPAR, cell-bound (cynomolgus monkey, UniProt Q9GK78 23-305); assay: FACS on 293T cells expressing cynomolgus uPAR, GeoMean of the peak shift
T1 construct: whole, on cells; also called cyno-uPAR; uPAR on CHOK1 or 293T transfectants

[2] = target: T2, human urokinase-type plasminogen activator receptor (uPAR), cell-bound (human, UniProt Q03405 23-305); assay: FACS, B300.19/hu-uPAR cells
T2 construct: whole, on cells; Full length cDNA expressed on B300.19 and L929 transfectants; endogenous on U937 (and PC-3 used as positive control cells); also called hu-uPAR
T2 sequence (Q03405 23-305): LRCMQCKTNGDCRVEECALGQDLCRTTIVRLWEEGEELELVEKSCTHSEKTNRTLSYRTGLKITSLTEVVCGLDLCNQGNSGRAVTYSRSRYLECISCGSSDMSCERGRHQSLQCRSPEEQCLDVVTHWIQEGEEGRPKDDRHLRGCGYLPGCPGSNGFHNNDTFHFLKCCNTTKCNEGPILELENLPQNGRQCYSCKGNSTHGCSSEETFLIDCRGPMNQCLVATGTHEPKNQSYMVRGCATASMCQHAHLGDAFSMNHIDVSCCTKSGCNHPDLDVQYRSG
Experimental: Binding of the antibodies to cell-bound uPAR was tested with the murine pre-B cell line B300.19 (ATCC) transfected to express human uPAR, and B300.19 parental cells as a control, using Fluorometric Microvolume Assay Technology (FMAT). 5,000 cells/well were employed for the assay. […] The bound antibodies were detected using goat anti-human IgG Cy5 conjugate at 400 ng/ml (goat anti-mouse IgG Cy5 conjugate for mouse antibody control). […] For each dye stained, the ratio of the GeoMean values between positive and negative cells were tabulated.

T1 sequence (Q9GK78 23-305): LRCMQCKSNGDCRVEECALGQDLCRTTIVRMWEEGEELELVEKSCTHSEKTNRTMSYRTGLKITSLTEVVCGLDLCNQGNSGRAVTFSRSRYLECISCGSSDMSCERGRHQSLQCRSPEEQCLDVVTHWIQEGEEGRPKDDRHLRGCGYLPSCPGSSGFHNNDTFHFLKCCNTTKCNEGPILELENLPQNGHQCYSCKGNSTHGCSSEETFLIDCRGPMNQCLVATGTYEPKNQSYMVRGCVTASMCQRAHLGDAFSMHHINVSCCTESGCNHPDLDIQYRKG

| Binder | binding result [1] | gCy5 Geo Mean Pos Cells [2] |
| --- | --- | --- |
| 3.8.3 (antibody, V domains shown, Variable domains only; gamma 2 by chain name, kappa; also called 3.8.3g2; 3.8.3k) VH: EVQLVESGGGLVQPGGSLRLSCAASGFTFSSYWMSWVRQAPGKGLEWVANIKQHGSEKYYVDSVKGRFTISRDNAKNSLYLQMNSLRAEDTAVYYCAREEAYYYDNSGYYWYFDLWARGTLVTVSS VL: DIQMTQSPSSVSASIGDRVTITCRASQGISSWLAWYQQKPGKTPKLLIYAASSLQSGVPSRFSGSGSGTDFTLTISSLQPEDFATYYCQQADSFPWTFGQGTKVEIK | binds | – |
| 4.13.2 (antibody, V domains shown, Variable domains only; gamma 4 by chain name, kappa; also called 4.13.1; 4.13.1g4) VH: EVQLLESGGGLVQPGGSLRLSCAASGFTFSSYAMSWVRQAPGKGLEWVLGISGSGGSTYYADSVKGRFTISRDNSKNTLYLQMNSLRAEDTAVYYCAKDGYGDYVGWYFDLWGRGTLVTVSS VL: not shown | – | 282 |
